Experiment: yeast display, Sf9 membrane polyspecificity reagent, FACS + sequencing; frameworks hold sequencing errors
Method in brief: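 Galactose induction of a Saccharomyces cerevisiae BJ5465 synthetic nanobody display library ran 36–48 hours. The cells were then stained for 1 hour at 4 °C with 10% biotinylated, detergent-solubilized Sf9 membrane reagent, pulled down on streptavidin microbeads and FACS-sorted into low and high (top ~1%) gates on expression and reagent-binding fluorescence. Labels for polyreactivity follow the gate of origin.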

QVQLVESGGGLVQAGGSLRLSCAASGYTFRHYAMGWYRQAPGKERELVAAISRSGGRTYYADSVKGRFTISRDNAKNTVYLHMNSLKPEDTAVYYCAADRVFGSSYLSGFDYWGQGTQGTVSS
polyreactivity (PSR sort gate): low polyreactivity

QVQLVESGGGLVQAGGSLRLSCAASGYTFRSYAMGWYRQAPGKEWEFVASISSSGGSTYYADSVKGRFTISRDNAKNTVYLQMNSLKPEDTAVYYCAASVVSYPYDEYDYWGQGTQVTVSS
polyreactivity (PSR sort gate): low polyreactivity

QVQLVESGGGLVQAGGSLRLSCAASGYTFRTNVMGWYRPAPGKVWELVATINWRGGSTYYADSVKGRFTISRDNAKNTVYLQMNSLKPEDTAVYYCAKSYRYYRTMDYWGQGTQVTVSS
polyreactivity (PSR sort gate): low polyreactivity

QVQLVESGGGLVQAGGSLRLSCAASGYTFRYAMGWYRQAPGKERELVAAISSRGSSTYYADSVKGRFTISRDNAKNTVYLQMNSLKPEDTAVYYCAAKHFVKGDYWGQGTQVTVSS
polyreactivity (PSR sort gate): high polyreactivity

QVQLVESGGGLVQAGGSLRLSCAASGYTFRYYAMGWYRQAPGKERELVAAISSGGSTYYADSVKGRFTISRDNAKNTVYLQMNSLKPEDTAVYYCATGPRIRYDYWGQGTQVTVSS
polyreactivity (PSR sort gate): high polyreactivity

QVQLVESGGGLVQAGGSLRLSCAASGYTFRYYGMGWYRQAPGKERELVADINSNGVRTYYADSVKGRFTISRDNAKNTVYLQMNSLKPEDTAVYYCNKDWGRYRYDYWGQGTQVNVSS
polyreactivity (PSR sort gate): high polyreactivity

QVQLVESGGGLVQAGGSLRLSCAASGYTFRYYVMGWYRQAPGKERELVATISRGGRTNYADSVKGRFTISRDNAKNTVYLQMNSLKPEDTAVYYCNADWSRVPYRYDYWGQGTQVTVSS
polyreactivity (PSR sort gate): high polyreactivity

QVQLVESGGGLVQAGGSLRLSCAASGYTFSANADMGWYRQAPGKESELVAAITGSGGITYYADSVKGRFTISRDNAKNTVYLQMNSLKPEDTAVYYCAAAVVDAAFDYWGQGTQVTVSS
polyreactivity (PSR sort gate): low polyreactivity

QVQLVESGGGLVQAGGSLRLSCAASGYTFSFYAMGWYRQATGKERELVAAISRSGGSTYYADSVKGRFTISRDNAKNTVYLQMNSLKPEDTAVYYCAARWPGAYHEYGYWGQGTQVTVSS
polyreactivity (PSR sort gate): high polyreactivity

QVQLVESGGGLVQAGGSLRLSCAASGYTFSGYAMGWYRQAPGKERELVAAITSSGGTTYYADSVKGRFTISRDNAKNTVYLQMNSLKPEDTAVYYCNAYYSHYGDTEDYYWGQGTQVTVSS
polyreactivity (PSR sort gate): high polyreactivity

QVQLVESGGGLVQAGGSLRLSCAASGYTFSRNAMGWYRQAPGKERELVAAITGSGGSTYYADSVKGRFTISRDNAKNTVYLQMNSLKPEDTAVYYCATEVKRGYVGFDYWGQGTQVTVSS
polyreactivity (PSR sort gate): low polyreactivity

QVQLVESGGGLVQAGGSLRLSCAASGYTFSWYAMGWYRQAPGKERELVAGIDTSGGSTYYADSVKGRFTISRDNAKNTVYLQMNSLKPEDTAVYYCAAGLLWYSWGFWYYEYGYWGQGTQVTVSS
polyreactivity (PSR sort gate): low polyreactivity

QVQLVESGGGLVQAGGSLRLSCAASGYTFTHNAIGWYRQAPGKERELVATIRNSGSRTYYADSVKGRFTISRDNGKNTVYLQMNSLKPEDTAVYYCAARLLYRHFGYWGQGTQVTVSS
polyreactivity (PSR sort gate): high polyreactivity

QVQLVESGGGLVQAGGSLRLSCAASGYTFTINAMGWYRQAPGKERELVAAISWNGGRTYYADSVKGRFTISRDNAKNTDYVQMNSLQPEDTAVCYCNADTYSAGDYWGQGTQVTVSS
polyreactivity (PSR sort gate): high polyreactivity

QVQLVESGGGLVQAGGSLRLSCAASGYTFTIYSMGWYRQAPGKERELVAAISWNGGRTYYADSVKGRFTISRDNAKNTVYLKMNSLKPEDTAVYDCNADNFSAGDYWGQGTQVTVSS
polyreactivity (PSR sort gate): high polyreactivity

QVQLVESGGGLVQAGGSLRLSCAASGYTFTQNAMGWYRQAPGKERELVASITSGGSTDYADSVKGRFTISRDNAKNTVYLQMNSLKPEDTAVYYCAKDYYAYSDYDYWGQGTQVTVSS
polyreactivity (PSR sort gate): low polyreactivity

QVQLVESGGGLVQAGGSLRLSCAASGYTFVDNAMGRYRQAPGKERELVAAINWDGASTYADSVKGRFTISRDNAKNTVYLQMNSLKPEDTAVYYCTASGKDIFNYVYQGYDYWGQGTQVTVSS
polyreactivity (PSR sort gate): low polyreactivity

Source: the nanobody polyreactivity screen of Harvey et al. (2022)
